Values belong to the binder of their own block, whether it stands above or below them.
B1: FLNCd24 (domain 24 of filamin C, residues 2630-2724), wild type (domain or fragment, human)
chain: GSKFSSDASKVVTRGPGLSQAFVGQKNSFTVDCSKAGTNMMMVGVHGPKTPCEEVYVKHMGNRVYNVTYTVKEKGDYILIVKWGDESVPGSPFKVKV
notes: residual Gly-Ser overhang left on the N-terminus after TEV cleavage of the His6 tag; filamin C, human, C-terminal Ig-like domain 24, residues 2630-2724; also called FLNCd24 WT; source: E. coli BL21(DE3), purified (HisTrap, TEV cleavage); not shown: His6, N-terminal, cleaved
B2: FLNCd24^Y2683E (phosphomimic) (domain or fragment, human)
chain: GSKFSSDASKVVTRGPGLSQAFVGQKNSFTVDCSKAGTNMMMVGVHGPKTPCEEVEVKHMGNRVYNVTYTVKEKGDYILIVKWGDESVPGSPFKVKV
notes: residual Gly-Ser overhang left on the N-terminus after TEV cleavage of the His6 tag; filamin C, human, domain 24, residues 2630-2724, Y2683E; source: E. coli BL21(DE3), purified (HisTrap, TEV cleavage); not shown: His6, N-terminal, cleaved
B5: FLNCd24^T2677D (phosphomimic) (domain or fragment, human)
chain: GSKFSSDASKVVTRGPGLSQAFVGQKNSFTVDCSKAGTNMMMVGVHGPKDPCEEVYVKHMGNRVYNVTYTVKEKGDYILIVKWGDESVPGSPFKVKV
notes: residual Gly-Ser overhang left on the N-terminus after TEV cleavage of the His6 tag; filamin C, human, domain 24, residues 2630-2724, T2677D; source: E. coli BL21(DE3), purified (HisTrap, TEV cleavage); not shown: His6, N-terminal, cleaved

Key:
[1] = biological target: the molecule itself; assay: native MS; titration of FLNCd24 (WT or phosphomimic) alone; dimer to monomers; 200 mM ammonium acetate pH 6.9; three technical repeats
[2] = biological target: the molecule itself; assay: native MS; FLNCd24 alone, and mixed at a monomer ratio of 1:1 with HSPB7, HSPB7ΔN or HSPB7ACD; 200 mM ammonium acetate pH 6.9 (full-length HSPB7: 1 M)
[3] = biological target: T1, HSPB7ΔN (residues 78-175 of isoform 2) (human, UniProt Q9UBY9-2 78-175); assay: native MS; HSPB7 construct at a range of FLNCd24 concentrations; competitive homo- and hetero-dimerisation fitted as a system of coupled equilibria; 200 mM ammonium acetate pH 6.9; details: both partners purified
T1 construct: residual Gly-Ser overhang left on the N-terminus after TEV cleavage of the His6 tag; HSPB7, human, residues 78-175 of isoform 2 (lacks the N-terminal region); numbers count on: isoform 2 (Q9UBY9-2); source: E. coli BL21(DE3), purified (HisTrap, TEV cleavage, HiTrap Q); not shown: His6, N-terminal, cleaved

[4] = biological target: B1; assay: crystal structure; HSPB7ACD^C131S and FLNCd24 mixed 4:1, heterodimer isolated by gel filtration in 20 mM HEPES pH 8.0; crystals in 0.1 mM HEPES, 20% w/v PEG 8000, pH 7.0; 2.9 Å; details: both partners purified
[5] = biological target: B1; assay: native MS; HSPB7 construct at a range of FLNCd24 concentrations; competitive homo- and hetero-dimerisation fitted as a system of coupled equilibria; 200 mM ammonium acetate pH 6.9; details: both partners purified
[6] = biological target: B5; assay: as above; details: both partners purified
[7] = biological target: B2; assay: as above; details: both partners purified
[8] = biological target: T2, HSPB5ACD (α-crystallin domain of HSPB5) (human); assay: native MS; ACD incubated with C-terminal peptide, peptide titration; 200 mM ammonium acetate pH 6.9; acetonitrile added to the source housing; fit with a Hill slope model for 1:1 binding; details: both partners purified
T2 chain: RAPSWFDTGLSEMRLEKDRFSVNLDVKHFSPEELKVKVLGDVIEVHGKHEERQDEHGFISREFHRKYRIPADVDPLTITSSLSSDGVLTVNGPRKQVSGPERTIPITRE

[9] = biological target: T3, HSPB1ACD (α-crystallin domain of HSPB1) (human); assay: as above; details: both partners purified
T3 construct: HSPB1, human, α-crystallin domain; also called ACD of HSPB1

Binder: B1
Kd [1]: 75.9 ± 8.4 nM
stoichiometry N [2]: 2
Kd [3]: 6.7 ± 1.4 nM

Binder: B2
Kd [1]: 4050 ± 557 nM

binding result [4]: binds
B3: HSPB7ACD^C131S (domain or fragment)
chain: not shown
notes: residual Gly-Ser overhang left on the N-terminus after TEV cleavage of the His6 tag; HSPB7, human, core α-crystallin domain, residues 78-162 of isoform 2, C131S; numbers count on: isoform 2 (Q9UBY9-2); Mutation made to aid crystallisation; source: E. coli BL21(DE3), purified (HisTrap, TEV cleavage, HiTrap Q); not shown: His6, N-terminal, cleaved

Kd [5]: 3.9 ± 0.9 nM
Kd [6]: 14.1 ± 0.5 nM
Kd [7]: 2.2 ± 0.6 nM
B4: HSPB7ACD (α-crystallin domain, residues 78-162 of isoform 2) (domain or fragment)
chain: not shown
notes: residual Gly-Ser overhang left on the N-terminus after TEV cleavage of the His6 tag; HSPB7, human, core α-crystallin domain, residues 78-162 of isoform 2; numbers count on: isoform 2 (Q9UBY9-2); source: E. coli BL21(DE3), purified (HisTrap, TEV cleavage, HiTrap Q); not shown: His6, N-terminal, cleaved

Binder: B5
Kd [1]: 8.5 ± 1 nM

Kd [8]: ≤ 100000 nM
B6: HSPB5 C-terminal peptide (cognate peptide of HSPB5ACD) (peptide)
chain: ERTIPITRE
modifications: Limits are not printed. 156-164, containing the IPI motif, is taken by convention from the peptide in the HSPB5 ACD-peptide structure PDB 4M5S; check residues come from the IPI motif, not numbered in

Kd [9]: ≤ 100000 nM
B7: HSPB1 C-terminal peptide (cognate peptide of HSPB1ACD) (peptide)
chain: ITIPVTFE
